# Measured values reported in US12104181B2, “Compositions and methods for treating viral infections targeting TRIM7” (THE BOARD OF REGENTS OF THE UNIVERSITY OF TEXAS SYSTEM, priority 2021, dated 2024).
# B1: RNFT1: human RING type E3 ligase expressed from lentiviral vector (protein, UniProt Q5M7Z0 1-435, looked up)
# E3 ubiquitin-protein ligase …: MPLFLLSLPTPPSASGHERRQRPEAKTSGSEKKYLRAMQANRSQLHSPPGTGSSEDASTPQCVHTRLTGEGSCPHSGDVHIQINSIPKECAENASSRNIRSGVHSCAHGCVHSRLRGHSHSEARLTDDTAAESGDHGSSSFSEFRYLFKWLQKSLPYILILSVKLVMQHITGISLGIGLLTTFMYANKSIVNQVFLRERSSKIQCAWLLVFLAGSSVLLYYTFHSQSLYYSLIFLNPTLDHLSFWEVFWIVGITDFILKFFFMGLKCLILLVPSFIMPFKSKGYWYMLLEELCQYYRTFVPIPVWFRYLISYGEFGNVTRWSLGILLALLYLILKLLEFFGHLRTFRQVLRIFFTQPSYGVAASKRQCSDVDDICSICQAEFQKPILLICQHIFCEECMTLWFNREKTCPLCRTVISDHINKWKDGATSSHLQIY
# modifications: lentiviral expression
# notes: human RING type E3 ligase expressed from lentiviral vector
# B2: RNF220: human RING type E3 ligase expressed from lentiviral vector (protein, UniProt Q5VTB9 1-566, looked up)
# E3 ubiquitin-protein ligase …: MDLHRAAFKMENSSYLPNPLASPALMVLASTAEASRDASIPCQQPRPFGVPVSVDKDVHIPFTNGSYTFASMYHRQGGVPGTFANRDFPPSLLHLHPQFAPPNLDCTPISMLNHSGVGAFRPFASTEDRESYQSAFTPAKRLKNCHDTESPHLRFSDADGKEYDFGTQLPSSSPGSLKVDDTGKKIFAVSGLISDREASSSPEDRNDRCKKKAAALFDSQAPICPICQVLLRPSELQEHMEQELEQLAQLPSSKNSLLKDAMAPGTPKSLLLSASIKREGESPTASPHSSATDDLHHSDRYQTFLRVRANRQTRLNARIGKMKRRKQDEGQREGSCMAEDDAVDIEHENNNRFEEYEWCGQKRIRATTLLEGGFRGSGFIMCSGKENPDSDADLDVDGDDTLEYGKPQYTEADVIPCTGEEPGEAKEREALRGAVLNGGPPSTRITPEFSKWASDEMPSTSNGESSKQEAMQKTCKNSDIEKITEDSAVTTFEALKARVRELERQLSRGDRYKCLICMDSYSMPLTSIQCWHVHCEECWLRTLGAKKLCPQCNTITAPGDLRRIYL
# B3: MUL1: human RING type E3 ligase expressed from lentiviral vector (protein, UniProt Q969V5 1-352, looked up)
# Mitochondrial ubiquitin …: MESGGRPSLCQFILLGTTSVVTAALYSVYRQKARVSQELKGAKKVHLGEDLKSILSEAPGKCVPYAVIEGAVRSVKETLNSQFVENCKGVIQRLTLQEHKMVWNRTTHLWNDCSKIIHQRTNTVPFDLVPHEDGVDVAVRVLKPLDSVDLGLETVYEKFHPSIQSFTDVIGHYISGERPKGIQETEEMLKVGATLTGVGELVLDNNSVRLQPPKQGMQYYLSSQDFDSLLQRQESSVRLWKVLALVFGFATCATLFFILRKQYLQRQERLRLKQMQEEFQEHEAQLLSRAKPEDRESLKSACVVCLSSFKSCVFLECGHVCSCTECYRALPEPKKCPICRQAITRVIPLYNS
# modifications: lentiviral expression
# notes: as for B1
# B4: ZNRF1: human RING type E3 ligase expressed from lentiviral vector (protein, UniProt Q8ND25 2-227, looked up)
# E3 ubiquitin-protein ligase …: GGKQSTAARSRGPFPGVSTDDSAVPPPGGAPHFGHYRTGGGAMGLRSRSVSSVAGMGMDPSTAGGVPFGLYTPASRGTGDSERAPGGGGSASDSTYAHGNGYQETGGGHHRDGMLYLGSRASLADALPLHIAPRWFSSHSGFKCPICSKSVASDEMEMHFIMCLSKPRLSYNDDVLTKDAGECVICLEELLQGDTIARLPCLCIYHKSCIDSWFEVNRSCPEHPAD
# modifications: lentiviral expression
# notes: as for B1
# B5: MARCH5: human RING type E3 ligase expressed from lentiviral vector (protein, UniProt Q9NX47 1-278, looked up)
# E3 ubiquitin-protein ligase …: MPDQALQQMLDRSCWVCFATDEDDRTAEWVRPCRCRGSTKWVHQACLQRWVDEKQRGNSTARVACPQCNAEYLIVFPKLGPVVYVLDLADRLISKACPFAAAGIMVGSIYWTAVTYGAVTVMQVVGHKEGLDVMERADPLFLLIGLPTIPVMLILGKMIRWEDYVLRLWRKYSNKLQILNSIFPGIGCPVPRIPAEANPLADHVSATRILCGALVFPTIATIVGKLMFSSVNSNLQRTILGGIAFVAIKGAFKVYFKQQQYLRQAHRKILNYPEQEEA
# B6: RNF130: human RING type E3 ligase expressed from lentiviral vector (protein, UniProt Q86XS8 28-419, looked up)
# E3 ubiquitin-protein ligase …: DNASQEYYTALINVTVQEPGRGAPLTFRIDRGRYGLDSPKAEVRGQVLAPLPLHGVADHLGCDPQTRFFVPPNIKQWIALLQRGNCTFKEKISRAAFHNAVAVVIYNNKSKEEPVTMTHPGTGDIIAVMITELRGKDILSYLEKNISVQMTIAVGTRMPPKNFSRGSLVFVSISFIVLMIISSAWLIFYFIQKIRYTNARDRNQRRLGDAAKKAISKLTTRTVKKGDKETDPDFDHCAVCIESYKQNDVVRILPCKHVFHKSCVDPWLSEHCTCPMCKLNILKALGIVPNLPCTDNVAFDMERLTRTQAVNRRSALGDLAGDNSLGLEPLRTSGISPLPQDGELTPRTGEINIAVTKEWFIIASFGLLSALTLCYMIIRATASLNANEVEWF
# B7: RNF4: human RING type E3 ligase expressed from lentiviral vector (protein, UniProt P78317 1-190, looked up)
# E3 ubiquitin-protein ligase …: MSTRKRRGGAINSRQAQKRTREATSTPEISLEAEPIELVETAGDEIVDLTCESLEPVVVDLTHNDSVVIVDERRRPRRNARRLPQDHADSCVVSSDDEELSRDRDVYVTTHTPRNARDEGATGLRPSGTVSCPICMDGYSEIVQNGRLIVSTECGHVFCSQCLRDSLKNANTCPTCRKKINHKRYHPIYI
# modifications: lentiviral expression
# notes: as for B1
# B8: PCGF6: human RING type E3 ligase expressed from lentiviral vector (protein, UniProt Q9BYE7 1-350, looked up)
# Polycomb group RING finger …: MEGVAVVTAGSVGAAKTEGAAALPPPPPVSPPALTPAPAAGEEGPAPLSETGAPGCSGSRPPELEPERSLGRFRGRFEDEDEELEEEEELEEEEEEEEEDMSHFSLRLEGGRQDSEDEEERLINLSELTPYILCSICKGYLIDATTITECLHTFCKSCIVRHFYYSNRCPKCNIVVHQTQPLYNIRLDRQLQDIVYKLVINLEEREKKQMHDFYKERGLEVPKPAVPQPVPSSKGRSKKVLESVFRIPPELDMSLLLEFIGANEGTGHFKPLEKKFVRVSGEATIGHVEKFLRRKMGLDPACQVDIICGDHLLEQYQTLREIRRAIGDAAMQDGLLVLHYGLVVSPLKIT
# B9: CHFR: human RING type E3 ligase expressed from lentiviral vector (protein, UniProt Q96EP1 1-664, looked up)
# E3 ubiquitin-protein ligase …: MERPEEGKQSPPPQPWGRLLRLGAEEGEPHVLLRKREWTIGRRRGCDLSFPSNKLVSGDHCRIVVDEKSGQVTLEDTSTSGTVINKLKVVKKQTCPLQTGDVIYLVYRKNEPEHNVAYLYESLSEKQGMTQESFEANKENVFHGTKDTSGAGAGRGADPRVPPSSPATQVCFEEPQPSTSTSDLFPTASASSTEPSPAGRERSSSCGSGGGGISPKGSGPSVASDEVSSFASALPDRKTASFSSLEPQDQEDLEPVKKKMRGDGDLDLNGQLLVAQPRRNAQTVHEDVRAAAGKPDKMEETLTCIICQDLLHDCVSLQPCMHTFCAACYSGWMERSSLCPTCRCPVERICKNHILNNLVEAYLIQHPDKSRSEEDVQSMDARNKITQDMLQPKVRRSFSDEEGSSEDLLELSDVDSESSDISQPYVVCRQCPEYRRQAAQPPHCPAPEGEPGAPQALGDAPSTSVSLTTAVQDYVCPLQGSHALCTCCFQPMPDRRAEREQDPRVAPQQCAVCLQPFCHLYWGCTRTGCYGCLAPFCELNLGDKCLDGVLNNNSYESDILKNYLATRGLTWKNMLTESLVALQRGVFLLSDYRVTGDTVLCYCCGLRSFRELTYQYRQNIPASELPVAVTSRPDCYWGRNCRTQVKAHHAMKFNHICEQTRFKN
# B10: RNF38: human RING type E3 ligase expressed from lentiviral vector (protein, UniProt Q9H0F5 1-515, looked up)
# E3 ubiquitin-protein ligase …: MACKISPGANSASLPGHPNKVICERVRLQSLFPLLPSDQNTTVQEDAHFKAFFQSEDSPSPKRQRLSHSVFDYTSASPAPSPPMRPWEMTSNRQPPSVRPSQHHFSGERCNTPARNRRSPPVRRQRGRRDRLSRHNSISQDENYHHLPYAQQQAIEEPRAFHPPNVSPRLLHPAAHPPQQNAVMVDIHDQLHQGTVPVSYTVTTVAPHGIPLCTGQHIPACSTQQVPGCSVVFSGQHLPVCSVPPPMLQACSVQHLPVPYAAFPPLISSDPFLIHPPHLSPHHPPHLPPPGQFVPFQTQQSRSPLQRIENEVELLGEHLPVGGFTYPPSAHPPTLPPSAPLQFLTHDPLHQEVSFGVPYPPFMPRRLTGRSRYRSQQPIPPPPYHPSLLPYVLSMLPVPPAVGPTFSFELDVEDGEVENYEALLNLAERLGEAKPRGLTKADIEQLPSYRFNPNNHQSEQTLCVVCMCDFESRQLLRVLPCNHEFHAKCVDKWLKANRTCPICRADASEVHRDSE
# B11: RNF214: human RING type E3 ligase expressed from lentiviral vector (protein, UniProt Q8ND24 2-703, looked up)
# RING finger protein 214: AASEVAGVVANAPSPPESSSLCASKSDEGLPDGLSTKDSAQKQKNSPLLSVSSQTITKENNRNVHLEHSEQNPGSSAGDTSAAHQVVLGENLIATALCLSGSGSQSDLKDVASTAGEEGDTSLRESLHPVTRSLKAGCHTKQLASRNCSEEKSPQTSILKEGNRDTSLDFRPVVSPANGVEGVRVDQDDDQDSSSLKLSQNIAVQTDFKTADSEVNTDQDIEKNLDKMMTERTLLKERYQEVLDKQRQVENQLQVQLKQLQQRREEEMKNHQEILKAIQDVTIKREETKKKIEKEKKEFLQKEQDLKAEIEKLCEKGRREVWEMELDRLKNQDGEINRNIMEETERAWKAEILSLESRKELLVLKLEEAEKEAELHLTYLKSTPPTLETVRSKQEWETRLNGVRIMKKNVRDQFNSHIQLVRNGAKLSSLPQIPTPTLPPPPSETDFMLQVFQPSPSLAPRMPFSIGQVTMPMVMPSADPRSLSFPILNPALSQPSQPSSPLPGSHGRNSPGLGSLVSPHGPHMPPAASIPPPPGLGGVKASAETPRPQPVDKLEKILEKLLTRFPQCNKAQMTNILQQIKTARTTMAGLTMEELIQLVAARLAEHERVAASTQPLGRIRALFPAPLAQISTPMFLPSAQVSYPGRSSHAPATCKLCLMCQKLVQPSELHPMACTHVLHKECIKFWAQTNTNDTCPFCPTLK
# Test system: coxsackievirus B3 (CVB3-GFP)
# Assay type: cell-based
# Settings: HeLa cells, GFP-positive cells within RFP-positive gate, replicate R1
row,Molecule,Percent Infected R1
1,B1,95.2%
2,B2,96.6%
3,B3,80.1%
4,B4,95.8%
5,B5,91.5%
6,B6,91.4%
7,B7,93.3%
8,B8,94.6%
9,B9,87.2%
10,B10,88.2%
11,B11,93.9%

# Same assay, conditions: HeLa cells, replicate R1
row,Molecule,Z score R1
1,B1,0.08
2,B2,0.1
3,B3,−0.11
4,B4,0.09
5,B5,0.04
6,B6,0.04
7,B7,0.06
8,B8,0.08
9,B9,−0.02
10,B10,−0.01
11,B11,0.067
